From US20250027068
Substitutions are numbered along the chain they refer to.

B1: PRT-311 (protein)
chain: MQITSVWTKGVTPLTPEQFRENNEDVIHAPYLAHQGWYDITKAFDGKDNLLCGAATAGNMLHWWFDQNKTEIEAYLSKHPEKQKIIFNNQEWFDLKAAIDTKDSQTNSQLFNYFRDKAFPNLSARQLGVMPDLVLDMFINGYYLNVPKTQSTDVNRPYQDKDKRGGIFDAVFTRGDQTTLLTARHDLKNKGLNDISTIIKQELTEGRALALSHTYANVSISHVINLWGADFNAEGNLEAIYVTDSDANASIGMKKYAVGINAHGHVAISAKKIEGENIGAQVLGLFTLSSGKDIWQKLS
B2: PRT-312 (protein)
chain: B1 chain with N88G, W92L, P147G, A249P, A257F, I260R
B3: PRT-366 (protein)
chain: MSQTEDSESLQRLRDIEDFQAEKEKQNVVYTKWLDGVDVKDHDFRKIVDGNSAYYATPLLNGRGFYDINKDFNRDNDKCAAAVAANMFHYWLDRNRDNVDRFLRQNPEKHGIIELPDGQLKLSDFLNTYESDDGYRDKSKLFDFISNNFNGPVWTDKLLDNYINGYAYNYKYGRTIEDSTKNTSKINFFKEVFNEKILTNNHSIRNQNEFSVLLSEALYTGKAIGLSYGPAGLRHSLGHIISVWGADLDADGNVVAIYVTDSDDKKLTIGDERVGLKRYKISTDDEGRLRLTAYEETHNTGGQVRGLWTLDTGKQAWADYFDKTEQTGTDQAEQ
B4: PRT-319 (protein)
chain: MTITSVWTKGVTPPTPEDFRENNEDVLHAPYVANQGWYDITKTFDGKDNLLCGAATAGNMLHWWFDQNKEEIERYLKKHPEKQKIIFNNQELFDVKAAIDTKDSQTNSKLFDYFRDKAFPNLSARQLGVMPDLVLDMFINGYYLNLGKTQSTDVNRPYQDKDKRGGIFDAVFTRGDQTTLLTARHDLKNKGLNEISDLIKQELTEGKALALSHTYANVRINHVINLWGADFDAEGNLIAIYVTDSDANASIGMKKYFVGRNANGKVAISAKKIEGDNIGAQVLGLFTLSLGQDIWQKLS
B5: PRT-343 (protein)
chain: B4 chain with V32L, T43A, N88G, R219S, N236E, I238E, A249P, N263H, L290T
B6: PRT-334 (protein)
chain: B4 chain with N88G, N121G, M130F, D176V, N236E, A249P, L290T
B7: PRT-336 (protein)
chain: B4 chain with N121G, M130F, D176V, N236E, A249P, L290T
B8: PRT-320 (protein)
chain: B4 chain with N88G, L290T, I294Q
B9: PRT-327 (protein)
chain: B4 chain with N236E, A249P, L290T
B10: PRT-328 (protein)
chain: B4 chain with E21K, D112N, N121G, M130F, D176V, L290T
B11: PRT-342 (protein)
chain: B4 chain with V32L, T43A, N88G, D112N, R219S, I238E, A249P, N263H, L290T
B12: PRT-344 (protein)
chain: B4 chain with V32L, T43A, N88G, R219S, N236E, I238E, A249P, N263H, L290T, I294Q
B13: PRT-335 (protein)
chain: B4 chain with N88G, N121G, M130F, D176V, N236E, A249P, L290T, I294Q
B14: PRT-296 (protein)
chain: MVTSVWTKGVTPPADFTQGEDVFHAPYVANQGWYDITKEFNGKDDLLCGAATAGNMLHWWFDQNKEYIEAYLKKHPEKQKIMFGDQELLDVRKAINTKGSQKNSELFNYFRDKAFPNLSARRLGVMPDLVLDMFINGYYLNVTKTQTTDVNRTYQEKDKRGGIFDAVFTRGDQSKLLTSRHDFKEKGLKEISDLIKQELTEGKALGLSHTYANVRIGHVINLWGADFDSDGNLKAIYVTDSDSNASIGMKKYGVGVNSAGKVAISAKEIKEDNIGAQVLGLFTLSTGQDIWNQTN
B15: PRT-304 (protein)
chain: B14 chain with A14T, T17I, Q18K, V28D, N30G, E39T, G217S, G253F, A259S
B16: PRT-350 (protein)
chain: MSQTEDSESLQRLRDIEDFQAEKKDQNVVYTKWLDGVDVKDHDFRKIVDGNSAYYATPLLNGRGWYDINKDFNRDSDKCAAAVAANMFHYWLDINRDNVDRFLRQNPEKHGIIELPDGQLKLSDFLNTYESDHGYRDKSKLFDFISENFNGPVWTDKLLDNYINGYAYNYKYGRTIEDPTKNTSKINFFKEVFNEKILTNNHSIRNQNEFSVLLIEALYTGKAIGLSYGPAGLRHSLGHIISVWGADLDADGNVVAIYVTDSDDKKLTIGDERVGLKRYKISTDDENRLRLTAYEETHNTGGQVRGLWTLDTGKYAWADYFDKTEQTGTDQAEQ
B17: PRT-351 (protein)
chain: B16 chain with D25M, W65F, V304I
B18: PRT-359 (protein)
chain: B3 chain with E24K, K25D, S52I, F65L, N76S, N147E, S179P, F210L
B19: PRT-358 (protein)
chain: B16 chain with S52I, I94R, H133D, N287G, Y315Q
B20: PRT-367 (protein)
chain: B3 chain with F65W

Target: pooled human IgG (human IgG1,2,3 and 4)

| Protein | Enzyme Activity Endpoint Assay (purified): Fab'2 [ng/µL] | Enzyme Activity Endpoint Assay (purified): Fc [ng/µL] | Enzyme Activity Endpoint Assay (purified): IgG [ng/µL] | Enzyme Activity Endpoint Assay (purified): scIgG [ng/µL] | Enzyme Activity Endpoint Assay (purified): Fab′2 [ng/µL] |
| --- | --- | --- | --- | --- | --- |
| B1 | 261 | 295 | 109 | 496 |  |
| B2 | 703 | 330 | 53 | 54 |  |
| B3 | 0 | 122 | 777 | 472 |  |
| B4 | 670 | 372 | 32 | 0 |  |
| B5 | 154 | 266 | 129 | 682 |  |
| B6 | 59 | 257 | 154 | 738 |  |
| B7 | 50 | 264 | 370 | 965 |  |
| B8 | 778 | 339 | 53 | 0 |  |
| B9 | 460 | 338 | 472 | 0 |  |
| B10 | 1000 | 455 | 75 | 0 |  |
| B11 | 15 | 209 | 206 | 841 |  |
| B12 |  | 335 | 0 | 218 | 562 |
| B13 | 38 | 154 | 74 | 514 |  |
| B14 | 955 | 443 | 0 | 0 |  |
| B15 | 711 | 320 | 0 | 0 |  |
| B16 | 520 | 243 | 668 | 200 |  |
| B17 | 37 | 191 | 86 | 638 |  |
| B18 | 260 | 340 | 202 | 677 |  |
| B19 | 8 | 90 | 86 | 375 |  |
| B20 | 351 | 361 | 100 | 518 |  |
